Reference: patent EP4556028A1

Target: recombinant SARS-CoV-2 spike RBD, WH-1 (Sino Biological 40592-V08B) (SARS-CoV-2 (wild type, WH-1)) (UniProt P0DTC2)
Assay: SPR (Biacore T200), minibinder immobilised, monomeric RBD as analyte

Substance | Kd [nM] | fold higher affinity than AHB2 [fold]
recombinant minibinder AHB2 with N- and C-terminal Ser/Gly extensions and C-terminal Cys (designed binder) | 0.05 | 
recombinant minibinder LCB1 with N- and C-terminal Ser/Gly extensions and C-terminal Cys (designed binder) | 0.005 | 10
